Data taken from patent US20190127468A1 (ONCOIMMUNE, published 2019).
Residue numbers refer to the chain shown, from its start. Names may count otherwise.

T1: M16
T1 construct: human CTLA-4Fc mutant; also called CTLA-4Fc M16
T1 mutant human CTLA-4 extracellular domain fused to IgG1 Fc: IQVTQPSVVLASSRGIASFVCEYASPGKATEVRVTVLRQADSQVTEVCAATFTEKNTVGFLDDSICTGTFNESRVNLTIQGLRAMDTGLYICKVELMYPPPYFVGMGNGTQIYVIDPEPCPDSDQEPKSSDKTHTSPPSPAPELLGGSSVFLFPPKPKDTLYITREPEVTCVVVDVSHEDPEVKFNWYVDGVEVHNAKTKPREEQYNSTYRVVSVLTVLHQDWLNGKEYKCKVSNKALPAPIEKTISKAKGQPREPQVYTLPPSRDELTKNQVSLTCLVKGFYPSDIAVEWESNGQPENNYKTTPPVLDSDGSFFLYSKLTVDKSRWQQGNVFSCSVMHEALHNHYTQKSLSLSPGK

B1: Humanized HC1 + LC2 (PP4631) (antibody, IgG1, V domains shown)
VH: QVQLQESGPGLVKPSETLSLTCTVSGFSLTSYGLSWIRQPPGKGLEWIGYIWYDGNTNFHPSLKSRVTISKDTSKNQFSLKLSSVTAADTAVYYCAKTEGHYYGSNYGYYALDYWGQGTSVTVSS
VL: DIQMTQSPSSLSASVGDRVTITCRASENIYSNLAWYQQKQGKAPKLLLYAATNLQDGVPSRFSGSGSGTDYTLTISSLQPEDFATYFCQHLWGTPYTFGQGTKLEIK
notes: Humanized L3D10; also called H3106 + L3107; HL12
B2: Humanized HC1 + LC1 (PP4630) (antibody, IgG1, V domains shown)
VH: B1 VH
VL: B1 VL with Q40P, D56S, Y71F, F87Y, Q100G
notes: Humanized L3D10; also called H3106 + L3106
B3: Humanized HC2 + LC3 (PP4635) (antibody, IgG1, V domains shown)
VH: B1 VH with P61S, N76S, F78V, S120L
VL: B1 VL with Q40P, L48I, N53S, D56S, Y71F, F87Y, Q100G, L104V
notes: Humanized L3D10; also called H3107 + L3108
B4: Humanized HC3 + LC2 (PP4637) (antibody, IgG1, V domains shown)
VH: B1 VH with P61S, S62P, K71V, S120L
VL: B1 VL
notes: Humanized L3D10; also called H3108 + L3107; HL32
B5: Humanized HC1 + LC3 (PP4632) (antibody, IgG1, V domains shown)
VH: B1 VH
VL: B1 VL with Q40P, L48I, N53S, D56S, Y71F, F87Y, Q100G, L104V
notes: Humanized L3D10; also called H3106 + L3108
B6: Humanized HC3 + LC3 (PP4638) (antibody, IgG1, V domains shown)
VH: B1 VH with P61S, S62P, K71V, S120L
VL: B1 VL with Q40P, L48I, N53S, D56S, Y71F, F87Y, Q100G, L104V
notes: Humanized L3D10; also called H3108 + L3108
B7: Humanized HC3 + LC1 (PP4636) (antibody, IgG1, V domains shown)
VH: B1 VH with P61S, S62P, K71V, S120L
VL: B1 VL with Q40P, D56S, Y71F, F87Y, Q100G
notes: Humanized L3D10; also called H3108 + L3106
B8: Humanized HC2 + LC2 (PP4634) (antibody, IgG1, V domains shown)
VH: B1 VH with P61S, N76S, F78V, S120L
VL: B1 VL
notes: Humanized L3D10; also called H3107 + L3107
B9: Humanized HC2 + LC1 (PP4633) (antibody, IgG1, V domains shown)
VH: B1 VH with P61S, N76S, F78V, S120L
VL: B1 VL with Q40P, D56S, Y71F, F87Y, Q100G
notes: Humanized L3D10; also called H3107 + L3106
B10: human B7-1 Fc fusion protein (Fc fusion, UniProt P33681 35-242, looked up)
chain: VIHVTKEVKEVATLSCGHNVSVEELAQTRIYWQKEKKMVLTMMSGDMNIWPEYKNRTIFDITNNLSIVILALRPSDEGTYECVVLKYEKDAFKREHLAEVTLSVKADFPTPSISDFEIPTSNIRRIICSTSGGFPEPHLSWLENGEELNAINTTVSQDPETELYAVSSKLDFNMTTNHSFMCLIKYGHLRVNQTFNWNTTKQEHFPDN
modifications: biotinylated (sites not given)
notes: Control protein; Used biotinylated in soluble phase; also called Biotin-HB7-1; Biotin-hB7-1; not shown: Fc portion
B11: human B7-1 Fc fusion protein (Fc fusion, UniProt P33681 35-242, looked up)
chain: B10 chain
notes: also called B7-1 Ig; B7-1 Ig fusion protein; not shown: Fc portion, not described
B12: anti-mouse CTLA4 mAb 9D9 (antibody, V domains shown)
VH: EAKLQESGPVLVKPGASVKMSCKASGYTFTDYYMNWVKQSHGKSLEWIGVINPYNGDTSYNQKFKGKATLTVDKSSSTAYMELNSLTSEDSAVYYCARYYGSWFAYWGQGTLITVST
VL: DIVMTQTTLSLPVSLGDQASISCRSSQSIVHSNGNTYLEWYLQKPGQSPKLLIYKVSNRFSGVPDRFSGSGSGTDFTLKISRVEAEDLGVYYCFQGSHVPYTFGGGTKLEIK
B13: chimeric L3D10 antibody (antibody, V domains shown)
VH: QVQLKESGPGLVAPSQSLSITCTVSGFSLTSYGLSWVRQPPGKGLEWLGVIWYDGNTNFHSALISRLTISKDNSKSQVFLELNSLQTDDTATYYCAKTEGHYYGSNYGYYALDYWGQGTSVTVSS
VL: DIQMTQSPASLSVSVGETVTITCRASENIYSNLAWYQQKQGKSPQLLVYAATNLADGVPSRFSGSGSGTQYSLKINSLQSEDFGTYFCQHLWGTPYTFGGGTKLEIKR
notes: Biotinylated in the ELISAs; also called Chimeric Parental; PP4629
B14: chimeric L3D10 antibody (antibody, V domains shown)
VH: B13 VH
VL: B13 VL
modifications: biotinylated (sites not given)
notes: Mouse L3D10 variable regions on human IgG1 with M252Y, S254T, T256E, S298A, E333A, K334A; Used biotinylated in the ELISA; also called Biotin-L3D10; PP4629

Key:
[1] = biological target: T2, mouse CTLA4-Fc fusion protein (mouse, UniProt P09793 36-162, limits assumed); assay: ELISA, plate-coated mCTLA4-Fc, biotinylated antibody
T2 construct: also called mCTLA4-Fc; mCTLA-4; not shown: Fc portion, not described

Control IgG1-Fc [2] = biological target: T3, Control IgG1-Fc (human, UniProt P01857-1 99-330 = IgG part, limits assumed); assay: ELISA: hIgGFc coated on the plate (negative control), biotinylated antibody in solution, HRP-streptavidin, OD450
T3 construct: domain: Fc; also called hIg-Fc; hIgG

[3] = biological target: T4, huCTLA4 (antigen of the Octet experiments) (human, UniProt P16410 37-162, limits assumed); assay: BLI (Octet Red96), antibody on anti-hIgG Fc biosensor, huCTLA4 in solution, 1:1 fit
T4 construct: Construct of the soluble antigen not described; also called the antigen

Control IgG1-Fc [4] = biological target: T3, Control IgG1-Fc; assay: ELISA: hIgGFc coated on the plate (negative control), biotinylated antibody in solution, HRP-streptavidin, OD450; remark: listed apart in the source
M16 = biological target: T1, M16; assay: ELISA: CTLA-4Fc protein coated on the plate, biotinylated antibody in solution, HRP-streptavidin, OD450
M12 = biological target: T5, M12; assay: as above
T5 construct: human CTLA-4Fc with clusters of murine Ctla-4 residues; also called CTLA-4Fc M12

M14 = biological target: T6, M14; assay: as above
T6 construct: human CTLA-4Fc mutant; also called CTLA-4Fc M14

[5] = biological target: T4, huCTLA4 (antigen of the Octet …); assay: BLI (Octet), purified 0.1 L material, replicate 1
[6] = biological target: T4, huCTLA4 (antigen of the Octet …); assay: BLI (Octet), purified 0.1 L material, replicate 2
[7] = biological target: T7, human CTLA-4Fc mutant protein M6 (human); assay: ELISA on coated target; binder 10 ng/ml
T7 construct: also called Mutant 6

[8] = biological target: T8, human CTLA-4Fc mutant protein M8 (human); assay: ELISA on coated target; binder 1000 ng/ml
T8 construct: also called Mutant 8

[9] = biological target: T7, human CTLA-4Fc mutant protein M6; assay: ELISA on coated target; binder 1000 ng/ml
Control IgG1-Fc [10] = biological target: T3, Control IgG1-Fc; assay: ELISA, plate-coated IgG1-Fc, biotinylated B7-1
[11] = biological target: T2, mouse CTLA4-Fc fusion protein; assay: ELISA, binding to soluble mouse CTLA4-Fc (the legend gives no further details of the format)
[12] = biological target: T2, mouse CTLA4-Fc fusion protein; assay: blocking ELISA: plate B7-2, biotinylated mouse CTLA4-Fc with the antibody, HRP-streptavidin; blocked ligand B7-2
[13] = biological target: T9, mouse CTLA4 in cells of Ctla4 m/m (WT) mice (mouse, UniProt P09793 36-223); assay: flow cytometry, intracellular staining of CTLA4 in spleen cells of Ctla4 m/m mice, gated on CD3+CD4+
T9 construct: whole, on cells; also called murine Ctla-4

[14] = biological target: T7, human CTLA-4Fc mutant protein M6; assay: ELISA on coated target; binder 100 ng/ml

T4 sequence (P16410 37-162 limits assumed): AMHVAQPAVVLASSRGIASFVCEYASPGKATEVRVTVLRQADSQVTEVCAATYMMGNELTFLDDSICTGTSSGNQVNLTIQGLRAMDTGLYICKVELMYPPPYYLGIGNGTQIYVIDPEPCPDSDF

| Binder | Kd [3] [nM] | koff [3] [s⁻¹] | kon [3] [M⁻¹ s⁻¹] | further results |
| --- | --- | --- | --- | --- |
| B1 |  |  |  | binding result [1]: no binding; binding result (Control IgG1-Fc [2]): no binding (tested: 0.2 µg/mL) |
| B2 | 13 | 0.0018 | 130000 |  |
| B3 | 8.4 | 0.002 | 240000 |  |
| B4 |  |  |  | binding result (Control IgG1-Fc [4]): no binding (tested: 0.2 µg/mL); binding result (M16): no binding (tested: 0.2 µg/mL); binding result (M12): no binding (tested: 0.2 µg/mL); binding result (M14): no binding (tested: 0.2 µg/mL); binding result [1]: no binding |
| B5 | 12 | 0.0019 | 160000 |  |
| B6 | 8.1 | 0.0023 | 290000 | Kd [5]: 9.4 nM; koff [5]: 0.0021 s⁻¹; kon [5]: 230000 M⁻¹ s⁻¹; Kd [6]: 11 nM; koff [6]: 0.0022 s⁻¹; kon [6]: 210000 M⁻¹ s⁻¹ |
| B7 | 8.7 | 0.0022 | 250000 |  |
| B8 | 6.8 | 0.0019 | 280000 |  |
| B9 | 7.1 | 0.0014 | 200000 |  |
| B10 |  |  |  | OD450 [7]: 0.279 OD; OD450 [8]: 3.63 OD; OD450 [9]: 3.41 OD |
| B11 |  |  |  | binding result (Control IgG1-Fc [10]): no binding |
| B12 |  |  |  | EC50 (read off the curve) [11]: ~0.4 µg/mL; IC50 (read off the curve) [12]: ~1 µg/mL |
| B13 |  |  |  | binding result [13]: no binding |
| B14 |  |  |  | OD450 [14]: 3.03 OD |
